From US20090053212A1 (Astellas, published 2009)
Values belong to the binder of their own block, whether it stands above or below them. Where no end group is shown, it is not given here.

What was measured:
[1] = biological target: T1, hOPN5-BSA conjugate (human osteopontin peptide CVDTYDGRGDSVVYGLRS coupled to BSA) (human, also: coupled to maleimide-activated BSA (Sulfo-EMCS), site not given here); assay: ELISA, hOPN5-BSA conjugate on the plate, HRP-labeled anti-human IgG (H+L) detection
T1 construct: Immobilized on the ELISA plate at 200 ng/100 uL/well as a BSA conjugate; also called hOPN5 peptide
T1 peptide: CVDTYDGRGDSVVYGLRS
Experimental: (§1) The peptide having the above-described sequence (hereinafter also referred to as the hOPN5 peptide) was reacted with BSA incorporating a maleimide group introduced using Sulfo-EMCS (Dojindo Laboratories) to prepare a hOPN5-BSA conjugate. The hOPN5-BSA conjugate was immobilized at 200 ng/100 μL/well on an ELISA plate (Nunc Company) at 4° C. overnight, and the plate was washed, after which blocking was performed with PBS supplemented with 1% BSA at 4° C. overnight. An antibody sample diluted with PBS supplemented with 1% BSA was added to the plate at 100 μL/well, and they were reacted at 37° C. for 1 hour. Detection was performed using a peroxidase (HRP)-labeled anti-human IgG (H+L) antibody (Wako Pure Chemical Industries, Ltd.). Absorbance at a wavelength of 450 nm was measured using a microplate reader (Molecular Devices Company).

[2] = biological target: thrombin-cleaved human osteopontin (human), P10451; assay: cell-based or functional assay
Sequence of thrombin-cleaved human osteopontin (human), P10451 (P10451 17-314): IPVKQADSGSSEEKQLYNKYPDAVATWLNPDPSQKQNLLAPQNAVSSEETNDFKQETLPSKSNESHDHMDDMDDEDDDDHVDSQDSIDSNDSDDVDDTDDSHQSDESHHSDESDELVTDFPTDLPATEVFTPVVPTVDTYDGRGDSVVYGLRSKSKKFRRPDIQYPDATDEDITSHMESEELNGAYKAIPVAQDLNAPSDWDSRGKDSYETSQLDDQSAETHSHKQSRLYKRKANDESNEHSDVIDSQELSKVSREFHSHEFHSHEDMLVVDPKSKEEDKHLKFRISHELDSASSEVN

biotinized hOPN5 peptide = biological target: T2, biotinized hOPN5 peptide (human, also: biotinylated, site not given here); assay: surface plasmon resonance (BIAcore), biotinized hOPN5 peptide on Sensor Chip SA, F(ab')2-PEG at 5 ug/mL
T2 peptide: CVDTYDGRGDSVVYGLRS
Experimental: The binding activity of the purified F(ab′)₂—PEG of R2K1v1.7 to the hOPN5 peptide was confirmed using surface plasmon resonance assay. The biotinized hOPN5 peptide was immobilized on Sensor Chip SA (BIAcore Company), and its binding activity was confirmed using the F(ab′)₂—PEG, previously diluted to 5 μg/mL with HBS-EP buffer (BIAcore Company); the results are shown in FIG. 16. From a rise in the signal, this F(ab′)₂—PEG was confirmed as having the same binding activity to the hOPN5 peptide as that of R2K1v1.7.

[3] = biological target: human OPN peptide (SVVYGLR sequence of human OPN) (human); assay: method not stated
[4] = biological target: T1, hOPN5-BSA conjugate (human osteopontin …); assay: ELISA, HRP-labeled anti-E-Tag antibody detection
Experimental: as §1
(§2) The binding activity of the purified R2K1v1.7-scFv to the hOPN5 peptide was measured by an ELISA method. The method was generally the same as described above; in this measurement, HRP-labeled anti-E-Tag antibody was used as the labeled antibody.

BSA = biological target: T3, BSA (UniProt P02769 25-607); assay: ELISA, detection with HRP-labeled anti-E-Tag antibody
T3 construct: also called negative control BSA
T3 sequence (P02769 25-607 limits assumed): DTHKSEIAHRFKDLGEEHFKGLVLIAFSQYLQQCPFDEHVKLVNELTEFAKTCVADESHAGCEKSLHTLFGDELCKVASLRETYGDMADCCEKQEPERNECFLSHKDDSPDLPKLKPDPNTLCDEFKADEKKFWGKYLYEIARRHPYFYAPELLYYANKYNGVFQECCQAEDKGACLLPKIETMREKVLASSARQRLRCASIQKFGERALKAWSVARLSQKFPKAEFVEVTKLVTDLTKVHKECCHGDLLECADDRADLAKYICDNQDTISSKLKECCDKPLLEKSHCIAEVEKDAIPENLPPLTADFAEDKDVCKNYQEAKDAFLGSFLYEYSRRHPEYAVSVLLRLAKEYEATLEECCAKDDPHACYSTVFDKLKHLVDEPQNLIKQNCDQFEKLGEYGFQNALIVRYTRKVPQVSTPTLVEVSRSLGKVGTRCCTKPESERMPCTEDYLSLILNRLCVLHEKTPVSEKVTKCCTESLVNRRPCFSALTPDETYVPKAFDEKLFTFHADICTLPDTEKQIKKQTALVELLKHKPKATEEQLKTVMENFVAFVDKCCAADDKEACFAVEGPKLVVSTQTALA
Experimental: as §1, §2

B1: R2K1v1.8 antibody (antibody, V domains shown)
VH: QVQLVQSGAELVRPGSSVKVSCKASGYTFTDYEMHWVKQTPVHGLEWIGAIHPGRGGTAYNQKFKGKATLTADKSTSTAYMELSSLTSEDTAVYYCTRITGYFDVWGQGTTVTVSS
VL: DVVMTQSPLSLPVTLGQPASISCRSSQSIVHSNGNTYLEWYLQKPGQSPQLLIYKVSNRFSGVPDRFSGSGSGTDFTLKISRVEAEDVGVYYCFQGSHVPLTFGQGTKLEIKR
notes: Only entries with a leader are tied to VH1.8 and VL1.8; also called humanized 2K1 antibody; R2K1 antibody
binding result [1]: binds | Mean cell count (migration of TNF-alpha-activated human peripheral blood monocytes, 48-well microchemotaxis chamber; antibody 50 ug/mL) [2]: 688 cells/mm^3

B3: R2K1v1.7 antibody (antibody, human IgG1, kappa, V domains shown)
VH: QVQLQQSGAEVKKPGASVKVSCKALGYTFTDYEMHWVKQTPVHGLEWIGAIHPGRGGTAYNQKFKGKATLTADKSTSTAYMELSSLTSEDTAVYYCTRITGYFDVWGQGTTVTVSS
VL: DVVMTQSPLSLSVTLGQPASISCRSSQSIVHSNGNTYLEWYLQKPGQSPQLLIYKVSNRFSGVPDRFSGSGSGTDFTLKISRVEAEDVGVYYCFQGSHVPLTFGQGTKLEIKR
fold binding affinity against the corresponding monkey OPN peptide [3]: > 100 times

Now from value to binder:

binding result (biotinized hOPN5 peptide): binds
B2: polyethylene glycol modified F(ab')2 of the R2K1v1.7 antibody (other, not shown: small tags and cut ends)
heavy: QVQLQQSGAEVKKPGASVKVSCKALGYTFTDYEMHWVKQTPVHGLEWIGAIHPGRGGTAYNQKFKGKATLTADKSTSTAYMELSSLTSEDTAVYYCTRITGYFDVWGQGTTVTVSS
light: DVVMTQSPLSLSVTLGQPASISCRSSQSIVHSNGNTYLEWYLQKPGQSPQLLIYKVSNRFSGVPDRFSGSGSGTDFTLKISRVEAEDVGVYYCFQGSHVPLTFGQGTKLEIKRTVAAPSVFIFPPSDEQLKSGTASVVCLLNNFYPREAKVQWKVDNALQSGNSQESVTEQDSKDSTYSLSSTLTLSKADYEKHKVYACEVTHQGLSSPVTKSFNRGEC
modifications: maleimidated polyethylene glycol SUNBRIGHT ME-120MA coupled to thiol groups activated by DTT reduction
notes: Made by pepsin digestion of R2K1v1.7, reduction of F(ab')2 to Fab' with DTT and coupling with maleimide-PEG; also called F(ab')2-PEG; F(ab')2-PEG of R2K1v1.7

binding result [4]: binds | binding result (BSA): no binding
B4: R2K1v1.7-scFv (scFv)
scFv: QVQLQQSGAEVKKPGASVKVSCKALGYTFTDYEMHWVKQTPVHGLEWIGAIHPGRGGTAYNQKFKGKATLTADKSTSTAYMELSSLTSEDTAVYYCTRITGYFDVWGQGTTVTVSSGGGGSGGGGSGGGGSDVVMTQSPLSLSVTLGQPASISCRSSQSIVHSNGNTYLEWYLQKPGQSPQLLIYKVSNRFSGVPDRFSGSGSGTDFTLKISRVEAEDVGVYYCFQGSHVPLTFGQGTKLEIKR
notes: Structure VH1.7-linker-VL1.7, expressed in E. coli HB2151 periplasm, nearly all monomeric by gel filtration; also called scFv of R2K1v1.7; purified R2K1v1.7-scFv; not shown: C-terminal E-Tag from the pCANTAB5E vector, and any joining residues from the NotI site
